Data as given in article PMC8056383.

Molecular target: 23C-176C double-cysteine mutant of full-length ClpB, labelled with Alexa Fluor 488 and Alexa Fluor 594 (Thermus thermophilus) (UniProt Q9RA63)
Sequence (Q9RA63 whole entry R23C/D176C): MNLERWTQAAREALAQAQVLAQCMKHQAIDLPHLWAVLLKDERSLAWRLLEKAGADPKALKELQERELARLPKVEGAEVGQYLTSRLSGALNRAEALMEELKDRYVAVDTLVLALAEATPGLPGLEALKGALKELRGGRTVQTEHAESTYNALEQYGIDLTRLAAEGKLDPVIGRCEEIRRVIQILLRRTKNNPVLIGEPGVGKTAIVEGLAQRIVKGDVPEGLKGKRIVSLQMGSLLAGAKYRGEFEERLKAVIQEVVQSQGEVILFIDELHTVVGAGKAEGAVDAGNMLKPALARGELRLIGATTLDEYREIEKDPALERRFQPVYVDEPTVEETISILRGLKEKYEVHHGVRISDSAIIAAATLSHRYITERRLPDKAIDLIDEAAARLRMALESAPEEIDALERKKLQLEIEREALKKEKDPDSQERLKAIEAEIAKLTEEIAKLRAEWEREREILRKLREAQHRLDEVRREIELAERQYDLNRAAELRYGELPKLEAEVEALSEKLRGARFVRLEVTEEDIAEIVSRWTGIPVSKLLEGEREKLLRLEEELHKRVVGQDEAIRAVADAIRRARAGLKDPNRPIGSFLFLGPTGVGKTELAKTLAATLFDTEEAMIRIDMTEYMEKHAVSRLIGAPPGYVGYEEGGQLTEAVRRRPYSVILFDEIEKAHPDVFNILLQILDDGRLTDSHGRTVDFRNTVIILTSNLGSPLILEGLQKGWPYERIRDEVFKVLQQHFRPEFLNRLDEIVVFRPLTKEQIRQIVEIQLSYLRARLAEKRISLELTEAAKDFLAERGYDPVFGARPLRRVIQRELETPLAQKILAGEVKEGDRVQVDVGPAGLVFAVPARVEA

Substance: κ-casein (from UniProt P02668 22-190) (natural protein)
- ATPase activity of fully labeled 23C-176C ClpB with 25 μM κ-casein relative to basal: 3.1 fold
